The values below come from publication PMC12102759 (2025).

To fix the notation:
B1: MXI1 peptide 6-21 (Max-interacting protein 1), 16-mer library wild type / SIN3A PAH2 (SIN3A PAH domain, residues 295-383) (parent complex)
chain 1: MINVQRLLEAAEFLER
chain 2: SLQNNQPVEFNHAINYVNKIKNRFQGQPDIYKAFLEILHTYQKEQRNAKEAGGNYTPALTEQEVYAQVARLFKNQEDLLSEFGQFLPDA

In this test the parent is B1. In words: proteomic peptide phage display deep mutational scan (ProP-PD DMS): M13 P8 16-mer library selected against immobilised GST-tagged bait for four days (rounds), NGS of the eluted pools per day and pseudo-replica; bait immobilised on MaxiSorp plates (10 µg), library pre-cleared on GST, 2 h binding at 4 °C, five washes; one round per day, days 1-4; value from days 2 and 3.
In the case of chain 1 MINVQRLLEAAEFSER [chain 1 L14S], the screen value was 0.00955 average fractional NGS count over selection days 2 and 3 (reads of this peptide / all reads for the bait, averaged over ….

For the variant chain 1 MINVQRLLEAAEFGER [chain 1 L14G], the screen value was 0.000436 average fractional NGS count over selection days 2 and 3 (reads of this peptide / all reads for the bait, averaged over ….

In the case of chain 1 MINVQRLLEAAEFPER [chain 1 L14P], the screen value was 0.0014 average fractional NGS count over selection days 2 and 3 (reads of this peptide / all reads for the bait, averaged over ….

As to chain 1 MINVQRLLEAAEFKER [chain 1 L14K], the screen value is 0.000523 average fractional NGS count over selection days 2 and 3 (reads of this peptide / all reads for the bait, averaged over ….

For the variant chain 1 MINVQRLLEAAEFNER [chain 1 L14N], the screen value is 0.0048 average fractional NGS count over selection days 2 and 3 (reads of this peptide / all reads for the bait, averaged over ….

Consider chain 1 MINVQRLLEAAEFEER [chain 1 L14E], for which the screen value was 0.00161 average fractional NGS count over selection days 2 and 3 (reads of this peptide / all reads for the bait, averaged over ….

In the case of chain 1 MINVQRLLEAAEFDER [chain 1 L14D], the screen value is 0.000292 average fractional NGS count over selection days 2 and 3 (reads of this peptide / all reads for the bait, averaged over ….

Consider chain 1 MINVQRLLEAAEFRER [chain 1 L14R], for which the screen value is 0.000773 average fractional NGS count over selection days 2 and 3 (reads of this peptide / all reads for the bait, averaged over ….

For chain 1 MINVQRLLEAAEFVER [chain 1 L14V], the screen value is 0.000293 average fractional NGS count over selection days 2 and 3 (reads of this peptide / all reads for the bait, averaged over ….

As for chain 1 MINVQRLLEAAEALER [chain 1 F13A], the screen value was 0.000255 average fractional NGS count over selection days 2 and 3 (reads of this peptide / all reads for the bait, averaged over ….

On to chain 1 MINVQRLLEAAEDLER [chain 1 F13D], for which the screen value is 0.00238 average fractional NGS count over selection days 2 and 3 (reads of this peptide / all reads for the bait, averaged over ….

Turning to chain 1 MINVQRLLEAAEELER [chain 1 F13E], the screen value is 0.000282 average fractional NGS count over selection days 2 and 3 (reads of this peptide / all reads for the bait, averaged over ….

In the case of chain 1 MINVQRLLEAAETLER [chain 1 F13T], the screen value was 0.00119 average fractional NGS count over selection days 2 and 3 (reads of this peptide / all reads for the bait, averaged over ….

Turning to chain 1 MINVQRLLEAAEKLER [chain 1 F13K], the screen value was 0.00119 average fractional NGS count over selection days 2 and 3 (reads of this peptide / all reads for the bait, averaged over ….

On to chain 1 MINVQRLLEAAESLER [chain 1 F13S], for which the screen value is 0.000565 average fractional NGS count over selection days 2 and 3 (reads of this peptide / all reads for the bait, averaged over ….

With chain 1 MINVQRLLEAAEFLDR [chain 1 E15D], the screen value was 0.000913 average fractional NGS count over selection days 2 and 3 (reads of this peptide / all reads for the bait, averaged over ….

chain 1 MINVQRLLEAAEFLSR [chain 1 E15S]: the screen value is 0.0548 average fractional NGS count over selection days 2 and 3 (reads of this peptide / all reads for the bait, averaged over ….

chain 1 MINVQRLLEAAEFLTR [chain 1 E15T]: the screen value was 0.119 average fractional NGS count over selection days 2 and 3 (reads of this peptide / all reads for the bait, averaged over ….

Consider chain 1 MINVQRLLEAAEFLIR [chain 1 E15I], for which the screen value is 0.0148 average fractional NGS count over selection days 2 and 3 (reads of this peptide / all reads for the bait, averaged over ….

For chain 1 MINVQRLLEAAEFLFR [chain 1 E15F], the screen value is 0.000557 average fractional NGS count over selection days 2 and 3 (reads of this peptide / all reads for the bait, averaged over ….

Regarding chain 1 MINVQRLLEAAEFLGR [chain 1 E15G], the screen value was 0.00623 average fractional NGS count over selection days 2 and 3 (reads of this peptide / all reads for the bait, averaged over ….

Regarding chain 1 MINVQRLLEAAEFLVR [chain 1 E15V], the screen value is 0.0659 average fractional NGS count over selection days 2 and 3 (reads of this peptide / all reads for the bait, averaged over ….

On to chain 1 MINVQRFLEAAEFLER [chain 1 L7F], for which the screen value is 0.000853 average fractional NGS count over selection days 2 and 3 (reads of this peptide / all reads for the bait, averaged over ….

Turning to chain 1 MINVQRLLNAAEFLER [chain 1 E9N], the screen value is 0.0151 average fractional NGS count over selection days 2 and 3 (reads of this peptide / all reads for the bait, averaged over ….

As for chain 1 MINVQRLLDAAEFLER [chain 1 E9D], the screen value is 0.000993 average fractional NGS count over selection days 2 and 3 (reads of this peptide / all reads for the bait, averaged over ….

Take chain 1 MINVQRLLVAAEFLER [chain 1 E9V]: the screen value was 0.000671 average fractional NGS count over selection days 2 and 3 (reads of this peptide / all reads for the bait, averaged over ….

Turning to chain 1 MINVQRLLYAAEFLER [chain 1 E9Y], the screen value is 0.000223 average fractional NGS count over selection days 2 and 3 (reads of this peptide / all reads for the bait, averaged over ….

As to chain 1 MINVQRLLHAAEFLER [chain 1 E9H], the screen value is 0.000122 average fractional NGS count over selection days 2 and 3 (reads of this peptide / all reads for the bait, averaged over ….

With chain 1 MINVQRLLAAAEFLER [chain 1 E9A], the screen value was 0.000182 average fractional NGS count over selection days 2 and 3 (reads of this peptide / all reads for the bait, averaged over ….

As for chain 1 MINVQWLLEAAEFLER [chain 1 R6W], the screen value was 0.0159 average fractional NGS count over selection days 2 and 3 (reads of this peptide / all reads for the bait, averaged over ….

As for chain 1 MINVQSLLEAAEFLER [chain 1 R6S], the screen value was 0.00011 average fractional NGS count over selection days 2 and 3 (reads of this peptide / all reads for the bait, averaged over ….

Regarding chain 1 MINVQHLLEAAEFLER [chain 1 R6H], the screen value is 0.00034 average fractional NGS count over selection days 2 and 3 (reads of this peptide / all reads for the bait, averaged over ….

chain 1 MINVQYLLEAAEFLER [chain 1 R6Y]: the screen value is 0.00232 average fractional NGS count over selection days 2 and 3 (reads of this peptide / all reads for the bait, averaged over ….

As for chain 1 MINVNRLLEAAEFLER [chain 1 Q5N], the screen value is 0.000576 average fractional NGS count over selection days 2 and 3 (reads of this peptide / all reads for the bait, averaged over ….

For chain 1 MINVTRLLEAAEFLER [chain 1 Q5T], the screen value is 0.00207 average fractional NGS count over selection days 2 and 3 (reads of this peptide / all reads for the bait, averaged over ….

For chain 1 MIPVQRLLEAAEFLER [chain 1 N3P], the screen value is 0.00138 average fractional NGS count over selection days 2 and 3 (reads of this peptide / all reads for the bait, averaged over ….

Take chain 1 MIWVQRLLEAAEFLER [chain 1 N3W]: the screen value was 0.000465 average fractional NGS count over selection days 2 and 3 (reads of this peptide / all reads for the bait, averaged over ….

For chain 1 MIGVQRLLEAAEFLER [chain 1 N3G], the screen value was 0.00333 average fractional NGS count over selection days 2 and 3 (reads of this peptide / all reads for the bait, averaged over ….

In the case of chain 1 MILVQRLLEAAEFLER [chain 1 N3L], the screen value is 0.0228 average fractional NGS count over selection days 2 and 3 (reads of this peptide / all reads for the bait, averaged over ….

As for chain 1 MIHVQRLLEAAEFLER [chain 1 N3H], the screen value is 0.000207 average fractional NGS count over selection days 2 and 3 (reads of this peptide / all reads for the bait, averaged over ….

In the case of chain 1 MIYVQRLLEAAEFLER [chain 1 N3Y], the screen value was 0.000298 average fractional NGS count over selection days 2 and 3 (reads of this peptide / all reads for the bait, averaged over ….

chain 1 MINVQRLLEAAKFLER [chain 1 E12K]: the screen value was 0.00174 average fractional NGS count over selection days 2 and 3 (reads of this peptide / all reads for the bait, averaged over ….

For the variant chain 1 MINVQRLLEAAYFLER [chain 1 E12Y], the screen value was 0.000478 average fractional NGS count over selection days 2 and 3 (reads of this peptide / all reads for the bait, averaged over ….

chain 1 MINVQRLLEAAVFLER [chain 1 E12V]: the screen value is 0.000221 average fractional NGS count over selection days 2 and 3 (reads of this peptide / all reads for the bait, averaged over ….

As for chain 1 MINVQRLLEAASFLER [chain 1 E12S], the screen value was 0.000265 average fractional NGS count over selection days 2 and 3 (reads of this peptide / all reads for the bait, averaged over ….

Consider chain 1 MINVQRLLEAAWFLER [chain 1 E12W], for which the screen value is 9.8e-05 average fractional NGS count over selection days 2 and 3 (reads of this peptide / all reads for the bait, averaged over ….

Regarding chain 1 MINVQRLLEAAQFLER [chain 1 E12Q], the screen value is 0.00319 average fractional NGS count over selection days 2 and 3 (reads of this peptide / all reads for the bait, averaged over ….

Turning to chain 1 MINVQRLLEAALFLER [chain 1 E12L], the screen value is 0.0769 average fractional NGS count over selection days 2 and 3 (reads of this peptide / all reads for the bait, averaged over ….

With chain 1 MINVQRLLEAAFFLER [chain 1 E12F], the screen value was 0.0145 average fractional NGS count over selection days 2 and 3 (reads of this peptide / all reads for the bait, averaged over ….

As for chain 1 MINVQRLLEAMEFLER [chain 1 A11M], the screen value is 0.00708 average fractional NGS count over selection days 2 and 3 (reads of this peptide / all reads for the bait, averaged over ….

Regarding chain 1 MINVQRLLEALEFLER [chain 1 A11L], the screen value is 0.000741 average fractional NGS count over selection days 2 and 3 (reads of this peptide / all reads for the bait, averaged over ….

On to chain 1 MINVQRLLEAFEFLER [chain 1 A11F], for which the screen value was 0.000474 average fractional NGS count over selection days 2 and 3 (reads of this peptide / all reads for the bait, averaged over ….

As for chain 1 MHNVQRLLEAAEFLER [chain 1 I2H], the screen value was 0.000551 average fractional NGS count over selection days 2 and 3 (reads of this peptide / all reads for the bait, averaged over ….

Turning to chain 1 MQNVQRLLEAAEFLER [chain 1 I2Q], the screen value was 0.000479 average fractional NGS count over selection days 2 and 3 (reads of this peptide / all reads for the bait, averaged over ….

chain 1 MWNVQRLLEAAEFLER [chain 1 I2W]: the screen value is 0.00792 average fractional NGS count over selection days 2 and 3 (reads of this peptide / all reads for the bait, averaged over ….

Regarding chain 1 MFNVQRLLEAAEFLER [chain 1 I2F], the screen value is 0.000676 average fractional NGS count over selection days 2 and 3 (reads of this peptide / all reads for the bait, averaged over ….

As for chain 1 MNNVQRLLEAAEFLER [chain 1 I2N], the screen value is 0.00111 average fractional NGS count over selection days 2 and 3 (reads of this peptide / all reads for the bait, averaged over ….

As for chain 1 MINVQRLLEVAEFLER [chain 1 A10V], the screen value is 0.000572 average fractional NGS count over selection days 2 and 3 (reads of this peptide / all reads for the bait, averaged over ….

On to chain 1 MINVQRLLEGAEFLER [chain 1 A10G], for which the screen value was 0.00122 average fractional NGS count over selection days 2 and 3 (reads of this peptide / all reads for the bait, averaged over ….

Consider chain 1 MINVQRLLEYAEFLER [chain 1 A10Y], for which the screen value is 0.000126 average fractional NGS count over selection days 2 and 3 (reads of this peptide / all reads for the bait, averaged over ….

As for chain 1 MINVQRLSEAAEFLER [chain 1 L8S], the screen value is 0.000473 average fractional NGS count over selection days 2 and 3 (reads of this peptide / all reads for the bait, averaged over ….

As for chain 1 MINVQRLMEAAEFLER [chain 1 L8M], the screen value was 0.000134 average fractional NGS count over selection days 2 and 3 (reads of this peptide / all reads for the bait, averaged over ….

Regarding chain 1 MINVQRLIEAAEFLER [chain 1 L8I], the screen value is 0.00287 average fractional NGS count over selection days 2 and 3 (reads of this peptide / all reads for the bait, averaged over ….
